Experiment [1] deals with human FcγRIIIa(F) (human) (UniProt P08637). Nature of the experiment: SPR, captured antibody.
In experiment [2] the target is FcγRIIb (human) (UniProt P31994). Nature of the experiment: SPR, captured antibody.
For experiment [3] the target is unchanged. Nature of the experiment: SPR (Biacore). (Surface plasmon resonance follows binding to a sensor surface in real time, without labels.)
For experiment [4], the target named is human FcγRIIIa(F) (human) (UniProt P08637). Nature of the experiment: SPR (Biacore).
Another experiment addresses human FcγRIIa(R) (human) (UniProt P12318). Nature of the experiment: SPR (Biacore).
For the next experiment, the target named is human FcγRIIa(H) (human) (UniProt P12318). Nature of the experiment: SPR (Biacore).
Chain of human FcγRIIa(H) (human) (P12318 other isoform, or with tags, fused parts or gaps limits assumed): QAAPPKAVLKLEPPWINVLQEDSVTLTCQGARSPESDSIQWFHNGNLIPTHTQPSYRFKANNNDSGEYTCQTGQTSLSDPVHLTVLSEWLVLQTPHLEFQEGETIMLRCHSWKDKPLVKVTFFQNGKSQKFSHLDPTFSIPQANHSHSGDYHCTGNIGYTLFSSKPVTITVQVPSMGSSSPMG

Chain of FcγRIIb (human) (P31994 43-217 limits assumed): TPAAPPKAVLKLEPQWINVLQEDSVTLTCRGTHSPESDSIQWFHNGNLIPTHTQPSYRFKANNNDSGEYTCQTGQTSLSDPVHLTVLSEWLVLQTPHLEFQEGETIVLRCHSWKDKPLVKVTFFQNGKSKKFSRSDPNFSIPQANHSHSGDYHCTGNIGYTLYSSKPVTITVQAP
Chain of human FcγRIIa(R) (human) (P12318 other isoform, or with tags, fused parts or gaps limits assumed): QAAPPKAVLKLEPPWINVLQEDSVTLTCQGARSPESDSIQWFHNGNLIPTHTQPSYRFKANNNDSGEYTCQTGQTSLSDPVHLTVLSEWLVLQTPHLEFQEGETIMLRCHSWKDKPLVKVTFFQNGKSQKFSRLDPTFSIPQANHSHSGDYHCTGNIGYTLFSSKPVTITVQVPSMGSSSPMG
Chain of human FcγRIIIa(F) (human) (P08637 other isoform, or with tags, fused parts or gaps limits assumed): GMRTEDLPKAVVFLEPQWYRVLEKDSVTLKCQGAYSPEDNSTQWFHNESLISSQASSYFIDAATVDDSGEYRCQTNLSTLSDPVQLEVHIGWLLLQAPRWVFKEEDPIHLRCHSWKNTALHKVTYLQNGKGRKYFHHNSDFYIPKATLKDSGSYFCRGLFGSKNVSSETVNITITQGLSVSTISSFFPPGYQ

In experiment [1], GpH7-B3 Q295W/GpL16-k0 (antibody) had a relative binding activity (% of GpH7-B3/GpL16-k0) of 10.
With GpH7-B3 Q295Y/GpL16-k0 (antibody), in experiment [1], the relative binding activity (% of GpH7-B3/GpL16-k0) was found to be 49.
Still for that read-out and setting: with GpH7-B3 S298G/GpL16-k0 (antibody) the figure was 59; with GpH7-B3 S298K/GpL16-k0 (antibody), 25; with GpH7-B3 S298P/GpL16-k0 (antibody), 0.
Same read-out and setting: with GpH7-B3 S298R/GpL16-k0 (antibody) the figure was 20.
Regarding GpH7-B3 S298W/GpL16-k0 (antibody), the relative binding activity (% of GpH7-B3/GpL16-k0) with FcγRIIb (human) [2] is 9; in experiment [1] it was 11.
Regarding GpH7-B3 S298Y/GpL16-k0 (antibody), the relative binding activity (% of GpH7-B3/GpL16-k0) in experiment [1] came out at 71.
Still for that read-out and setting: to GpH7-B3 S324K/GpL16-k0 (antibody) belongs 74.
Consider GpH7-B3 S324P/GpL16-k0 (antibody), for which, in experiment [1], the relative binding activity (% of GpH7-B3/GpL16-k0) worked out at 35.
Same read-out and setting: with GpH7-B3 Y296G/GpL16-k0 (antibody) the figure was 21; with GpH7-B3 Y296K/GpL16-k0 (antibody), 21.
On the same count and under the same terms, with GpH7-B3 Y296P/GpL16-k0 (antibody) the figure was 8; with GpH7-B3 Y296R/GpL16-k0 (antibody), 38; with GpH7-B3 Y300K/GpL16-k0 (antibody), 35.
For GpH7-B3 Y300P/GpL16-k0 (antibody), the relative binding activity (% of GpH7-B3/GpL16-k0) in experiment [1] was -1.
GpH7-B3 Y300R/GpL16-k0 (antibody) showed a relative binding activity (% of GpH7-B3/GpL16-k0) in experiment [1] of 12.
Regarding “GpH7-B3 variant E269H/GpL16-k0 (antibody)”, the relative binding activity (% of GpH7-B3/GpL16-k0) with FcγRIIb (human) [3] turned out to be 8.
As for “GpH7-B3 variant E269I/GpL16-k0 (antibody)”, the relative binding activity (% of GpH7-B3/GpL16-k0) with FcγRIIb (human) [3] was determined as 9.
Take “GpH7-B3 variant E269W/GpL16-k0 (antibody)”: in experiment [4], the relative binding activity (% of GpH7-B3/GpL16-k0) worked out at 9.
For the substance “GpH7-B3 variant G236K/GpL16-k0 (antibody)”, in the experiment with human FcγRIIa(R) (human), the relative binding activity (% of GpH7-B3/GpL16-k0) was 9.
In the case of “GpH7-B3 variant G237A/GpL16-k0 (antibody)”, the relative binding activity (% of GpH7-B3/GpL16-k0) with human FcγRIIa(H) (human) was found to be 9.
On to “GpH7-B3 variant G237P/GpL16-k0 (antibody)”, for which the relative binding activity (% of GpH7-B3/GpL16-k0) with human FcγRIIa(R) (human) is 8.
“GpH7-B3 variant L234G/GpL16-k0 (antibody)” came in with a relative binding activity (% of GpH7-B3/GpL16-k0) with human FcγRIIa(R) (human) of 9.
“GpH7-B3 variant S239R/GpL16-k0 (antibody)” had a relative binding activity (% of GpH7-B3/GpL16-k0) with human FcγRIIa(R) (human) of 8.
“GpH7-B3 variant S239W/GpL16-k0 (antibody)” registered a relative binding activity (% of GpH7-B3/GpL16-k0) in the experiment with human FcγRIIa(H) (human) of 9.
Turning to “GpH7-B3 variant V266F/GpL16-k0 (antibody)”, the relative binding activity (% of GpH7-B3/GpL16-k0) with human FcγRIIa(H) (human) worked out at 8.

(Values after patent US20200199241A1.)
